The values that follow are results of earlier work, collected in article PMC3076733.

The Kd is a measure of binding affinity in units of concentration.

The data set deals with Obscurin Rho-GEF (Homo sapiens) (UniProt Q5VST9).
Sequence of UniProt Q5VST9 (Q5VST9 5700-5884): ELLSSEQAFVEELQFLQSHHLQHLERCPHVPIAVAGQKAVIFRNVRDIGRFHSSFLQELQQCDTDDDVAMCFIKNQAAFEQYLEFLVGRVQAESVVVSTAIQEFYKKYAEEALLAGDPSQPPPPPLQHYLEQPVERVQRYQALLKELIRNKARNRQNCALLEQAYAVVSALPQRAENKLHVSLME

Turning to RanBP9 (from UniProt Q96S59), the Kd was 2000 nM.
